From publication doi:10.1101/415992 come the findings set out here.

For the assay, the target named is Mps1-1 kinetochores (budding yeast) (UniProt P40568). The assay is described as follows: optical trap force-clamp flow assay.
UniProt P40568, sequence (P40568 whole entry, looked up): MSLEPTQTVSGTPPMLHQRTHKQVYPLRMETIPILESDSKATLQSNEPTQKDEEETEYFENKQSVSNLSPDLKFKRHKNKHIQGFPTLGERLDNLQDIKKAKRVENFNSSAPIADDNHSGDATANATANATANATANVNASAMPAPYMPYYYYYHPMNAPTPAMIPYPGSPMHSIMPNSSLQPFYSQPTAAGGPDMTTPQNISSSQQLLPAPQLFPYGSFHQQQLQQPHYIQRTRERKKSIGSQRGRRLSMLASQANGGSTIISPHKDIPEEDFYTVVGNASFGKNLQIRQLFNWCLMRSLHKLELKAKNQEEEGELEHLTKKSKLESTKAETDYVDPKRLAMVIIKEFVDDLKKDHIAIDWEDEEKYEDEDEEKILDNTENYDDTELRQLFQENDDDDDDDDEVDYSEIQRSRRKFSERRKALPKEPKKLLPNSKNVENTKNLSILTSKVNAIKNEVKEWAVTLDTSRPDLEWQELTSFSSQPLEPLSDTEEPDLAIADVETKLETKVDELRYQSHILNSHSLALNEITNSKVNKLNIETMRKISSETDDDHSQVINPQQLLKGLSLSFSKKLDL

“dynamic microtubules (assembling and shortening tips of single, coverslip-anchored microtubules) (from UniProt Q6B856 1-445) (complex)” displayed a detachment rate (with 0.5 μM AurB*, 1.5 pN) of 28.9 hr^-1; a detachment rate (with 0.5 μM AurB*, 5 pN) of 7 hr^-1; a detachment rate (with 0.5 μM AurB*, ~1 pN) of 4.6 hr^-1; a detachment rate (with 0.5 μM AurB*-KD, 1.5 pN) of 10.4 hr^-1. The detachment rate (with 0.5 μM AurB*-KD, 5 pN) turned out to be 7 hr^-1 and the detachment rate (with 5 μM AurB*, ~1 pN) worked out at 7.2 hr^-1.
